Data reported in US20180153953A1 (CITY OF HOPE, published 2018).

Target: T1, Mu-type opioid receptor (Homo sapiens) (Homo sapiens, UniProt P35372 1-400)
T1 construct: Endogenous receptor of PANC-1 cells, PANC-1 MCTS, normal pancreatic epithelial cells and patient tissue (fixed cells or cell lysates); also called MOR; mu opioid receptor
Experiment: co-immunoprecipitation: lysates of normal pancreatic epithelial cells or PANC-1 cells, IP anti-MOR, blot anti-CXCR4
From the text: FIG. 3A-3D: There is no co-localization between MOR and CXCR4. FIG. 3A. […] Peak centers are shown. FIG. 3B. […] Peak centers are shown. FIG. 3C. Cross-correlation curves with s.e.m show no co-localization between MOR and CXCR4 in PANC-1 cells (diamonds, N=32 regions from 14 cells), PANC-1 MCTS (triangles, N=20 regions from 12 cells), and normal pancreatic epithelial cells (circles, N=21 regions from 13 cells). In all cases no long-range correlations were observed. FIG. 3D. Cell lysates from either normal pancreatic epithelial cells or PANC-1 cells were immunoprecipitated with anti-MOR antibody and immunoblotted with anti-CXCR4 antibody. CXCR4 was not detected in the MOR immunoprecipitate in either cell line.
Co-immunoprecipitation was performed using the co-immunoprecipitation kit (Pierce) per the manufacturer's protocol. Briefly, MOR antibody was immobilized using a coupling resin. PANC-1 or normal pancreatic epithelial cells were lysed using buffer containing 1% Nonidet P-40, 10% glycerol, 50 mM Tris-Cl, pH 7.4, 300 mM NaCl, 1.5 mM MgCl₂, 1 mM CaCl₂ and protease inhibitor tablets (Pierce) similarly as described before (Rozenfeld and Devi, 2007), pre-cleared and added to the antibody coupled resin and incubated with gentle shaking overnight at 4° C. After thorough washes, the protein sample co-immunoprecipitate was eluted and used for Western blotting with SSTR2 or CXCR4 antibodies. […]

T1 sequence (P35372 whole entry): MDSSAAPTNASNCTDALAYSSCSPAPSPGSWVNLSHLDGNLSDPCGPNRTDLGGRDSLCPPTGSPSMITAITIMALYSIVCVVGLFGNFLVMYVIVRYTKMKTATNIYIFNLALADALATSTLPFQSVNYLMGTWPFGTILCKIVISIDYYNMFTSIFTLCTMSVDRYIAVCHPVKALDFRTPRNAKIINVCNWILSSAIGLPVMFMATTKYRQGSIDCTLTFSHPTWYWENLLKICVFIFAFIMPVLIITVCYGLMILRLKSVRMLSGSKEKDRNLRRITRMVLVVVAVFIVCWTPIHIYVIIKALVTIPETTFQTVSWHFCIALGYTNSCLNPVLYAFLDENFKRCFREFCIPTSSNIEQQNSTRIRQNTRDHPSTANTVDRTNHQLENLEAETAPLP

B1: C-X-C motif receptor 4 (CXCR4) (receptor, human, UniProt P61073 1-352, looked up)
chain: MEGISIYTSDNYTEEMGSGDYDSMKEPCFREENANFNKIFLPTIYSIIFLTGIVGNGLVILVMGYQKKLRSMTDKYRLHLSVADLLFVITLPFWAVDAVANWYFGNFLCKAVHVIYTVNLYSSVLILAFISLDRYLAIVHATNSQRPRKLLAEKVVYVGVWIPALLLTIPDFIFANVSEADDRYICDRFYPNDLWVVVFQFQHIMVGLILPGIVILSCYCIIISKLSHSKGHQKRKALKTTVILILAFFACWLPYYIGISIDSFILLEIIKQGCEFENTVHKWISITEALAFFHCCLNPILYAFLGAKFKTSAQHALTSVSRGSSLKILSKGKRGGHSSVSTESESSSFHSS
notes: whole, on cells; Endogenous receptor in fixed cells or cell lysates
binding result: no binding
